The values below come from patent US20230167182A1 (BIOSION, published 2023).

The IC50 is the concentration that inhibits the measured activity by half. Usually EC50 stands for the midpoint of the concentration-response curve. Higher therefore signals lower potency in that assay. In general, Kd refers to a measure of binding affinity in units of concentration. As usually defined, the koff is a measure of how fast the partners let go of each other. What is called kon is the rate constant with which the complex forms.

The labels stand for the following.
T1: recombinant human IL6R-his (human, UniProt P08887 20-365)
T1 construct: In house made; the entry includes the C-terminal His tag; also called human IL6R-his protein
T1 sequence: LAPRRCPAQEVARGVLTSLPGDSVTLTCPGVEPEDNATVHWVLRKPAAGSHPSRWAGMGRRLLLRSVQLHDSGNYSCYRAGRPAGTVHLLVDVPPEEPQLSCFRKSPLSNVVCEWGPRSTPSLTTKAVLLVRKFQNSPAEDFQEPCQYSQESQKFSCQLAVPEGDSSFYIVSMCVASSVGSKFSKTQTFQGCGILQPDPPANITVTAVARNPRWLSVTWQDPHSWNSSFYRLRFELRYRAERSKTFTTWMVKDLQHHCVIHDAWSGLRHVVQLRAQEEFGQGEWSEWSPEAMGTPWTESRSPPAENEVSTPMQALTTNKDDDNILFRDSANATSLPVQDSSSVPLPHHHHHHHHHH

B1: Chimeric 1H9 (antibody, human IgG1, kappa, V domains shown)
VH: QVQLQQPGAELVKPGASVKLSCKASGYTFTSYWMHWVKLRPGQGLEWIGEINPTNGRTNYYEKFKNRATLTADKSSSTAYMQLSSLTFEDSAVYFCAKFHYSRWYFDVWGTGTTVTVSS
VL: DIVMTQSQKFMSTSVGDRVSITCKASQNVGTAVVWYQQKPGQSPKLLINPASNRYTGVPDRFTGSGSGTDFTLTISNMQSEDLADYFCQQYSSYPLTFGAGTKLELKR
notes: Mouse variable regions on human IgG1 / human kappa constant regions; also called chimeric antibody 1H9
B2: Chimeric 1B5 (antibody, human IgG1, kappa, V domains shown)
VH: QVQLQQPGAELVKPGASVKLSCKASGYTFTSYWMHWVKQRPGQGLEWIGEINPSNGRTNYNENFKSKATLTVDKSSSTAYMQLSSLTSEDSAVYYCARLNTHYVFDYWGQGTTLTVSS
VL: EIVLTQSPTILAASPGEKITFTCSVSSSISSNYLHWYQQKPGFSPKLLIYRTSNLASGVPARFSGSGSGTSYSLTIGTMEAEDVATYYCQQGSGIPFTFGSGTKLEIKR
notes: Mouse variable regions on human IgG1 / human kappa constant regions; also called chimeric antibody 1B5
B3: humanized antibody hu1H7-V6 (antibody, human IgG1, kappa, V domains shown)
VH: QVQLVQSGAEVKKPGASVKVSCKASGYTFTNYWMHWVRQAPGQGLEWIGEINPTNGRTNYNENFKSKVTLTVDTSTSTVYMELSSLRSEDTAVYYCARLNTHYVFDSWGQGTLVTVSS
VL: EIVLTQSPGTLSLSPGERATLSCSVSSSISSNYLHWYQQKPGLSPRLLISRTSTLASGIPARFSGSGSGTEYTLTISRMQSEDFAVYYCQQGSGIPFTFGQGTKLEIKR
notes: Human IgG1 / kappa
B4: humanized antibody hu1H7-V12 (antibody, human IgG1, kappa, V domains shown)
VH: B3 VH
VL: B3 VL with Y72F, M79L
notes: Human IgG1 / kappa
B5: humanized antibody hu1H7-V11 (antibody, human IgG1, kappa, V domains shown)
VH: B3 VH with K67R
VL: B3 VL with Y72F, M79L
notes: Human IgG1 / kappa
B6: humanized antibody hu1H7-V8 (antibody, human IgG1, kappa, V domains shown)
VH: B3 VH with V72R
VL: B3 VL with Y72F, M79L
notes: Human IgG1 / kappa
B7: humanized antibody hu1H7-V1 (antibody, human IgG1, kappa, V domains shown)
VH: B3 VH with T74K, V79A
VL: B3 VL
notes: Human IgG1 / kappa; also called hu1H7-Vl
B8: humanized antibody hu1H7-V2 (antibody, human IgG1, kappa, V domains shown)
VH: B3 VH with V72R
VL: B3 VL
notes: Human IgG1 / kappa
B9: humanized antibody hu1H7-V9 (antibody, human IgG1, kappa, V domains shown)
VH: B3 VH with L70M
VL: B3 VL with Y72F, M79L
notes: Human IgG1 / kappa
B10: humanized antibody hu1H7-V3 (antibody, human IgG1, kappa, V domains shown)
VH: B3 VH with L70M
VL: B3 VL
notes: Human IgG1 / kappa
B11: humanized antibody hu1H7-V1-2 (antibody, human IgG1, kappa, V domains shown)
VH: B3 VH with R38K, E46D, V68A, T74K, V79A
VL: B3 VL with S22T, L43F, E71S, T73S
notes: Human IgG1 / kappa; also called hu1H7-Vl-2
B12: humanized antibody hu1H7-V7 (antibody, human IgG1, kappa, V domains shown)
VH: B3 VH with T74K, V79A
VL: B3 VL with Y72F, M79L
notes: Human IgG1 / kappa

Numbering of substitutions follows the chain as printed.

The first experiment deals with T2, human IL6R-Fc protein (human, biotin-labeled in the ELISAs (sites not given)).
T2 construct: In house made; also called biotin-labeled human IL6R-Fc protein
Nature of the experiment: ligand blocking ELISA: antibody pre-incubated with biotin-labeled human IL6R-Fc, added to plate-coated human IL6 (blocked ligand: human IL6). In general terms: An ELISA detects its analyte on a solid surface through an enzyme-linked reagent.
B1: the half-inhibitory concentration (IC50) is 0.213 nM. This counts as sub-nanomolar.

The next experiment has as its target T2, human IL6R-Fc protein. Nature of the experiment: benchmark blocking ELISA: antibody pre-incubated with biotin-labeled human IL6R-Fc, added to plate-coated Tocilizumab (competitor: Tocilizumab).
Target sequence in this assay (chain, as listed by the source limits assumed): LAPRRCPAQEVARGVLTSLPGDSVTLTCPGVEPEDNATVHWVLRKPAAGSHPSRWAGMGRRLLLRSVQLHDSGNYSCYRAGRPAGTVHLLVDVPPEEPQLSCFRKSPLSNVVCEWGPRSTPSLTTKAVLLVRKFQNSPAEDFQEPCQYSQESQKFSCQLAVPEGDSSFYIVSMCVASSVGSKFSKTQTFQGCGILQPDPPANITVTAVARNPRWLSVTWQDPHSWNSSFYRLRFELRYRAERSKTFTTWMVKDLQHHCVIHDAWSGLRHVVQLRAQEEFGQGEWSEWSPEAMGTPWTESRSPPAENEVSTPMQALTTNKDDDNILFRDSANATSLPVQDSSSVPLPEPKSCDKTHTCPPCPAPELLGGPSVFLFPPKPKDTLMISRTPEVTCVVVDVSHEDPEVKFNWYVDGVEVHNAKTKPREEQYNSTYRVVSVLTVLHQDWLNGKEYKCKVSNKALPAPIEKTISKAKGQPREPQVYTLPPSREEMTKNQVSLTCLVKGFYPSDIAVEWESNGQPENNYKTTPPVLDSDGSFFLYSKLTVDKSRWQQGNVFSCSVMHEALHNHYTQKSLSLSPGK
Consider B2, for which the half-maximal inhibitory concentration (IC50) came out at 0.317 nM.

The next experiment deals with T2, human IL6R-Fc protein. As to the kind of experiment: capture ELISA: antibody captured on anti-IgG F(ab')2 coated plate, then biotin-labeled human IL6R-Fc, streptavidin-HRP. As for the experimental part: (§1) For the capture ELISA, 96-well micro plates were coated with 2 μg/ml AffiniPure Goat Anti-Mouse IgG, F(ab′)₂ fragment specific (Jackson ImmunoResearch Laboratories, Inc., Cat #115-005-072) in PBS, 100 μl/well, and incubated for 2 hours at 37° C. Plates were washed once with wash buffer (PBS+0.05% v/v Tween-20, PBST) and then blocked with 200 μl/well blocking buffer (5% w/v non-fatty milk in PBST) overnight at 4° C. […] Plates containing captured anti-IL6R antibodies were incubated with biotin-labeled human IL6R-Fc protein (prepared in house, SEQ ID NO: 43, 39.5 ng/ml in 2.5% w/v non-fatty milk in PBST, 100 μl/well) for 40 minutes at 37° C., washed 4 times, and incubated with streptavidin conjugated HRP (1:10000 dilution in PBST, Jackson ImmunoResearch Laboratories, Inc., Cat #016-030-084, 100 μl/well) for 40 minutes at 37° C. After a final wash, plates were incubated with 100 μl/well ELISA substrate TMB (InnoReagents, Cat #TMB-S-002). The reaction was stopped 3-10 minutes later at room temperature with 50 μl/well 1M H₂SO₄, and the absorbance of each well was read on a microplate reader using dual wavelength mode at 450 nm for TMB and 630 nm as the reference wavelength. Then the OD (450-630) values were plotted against antibody concentration. Data was analyzed using Graphpad Prism software and EC₅₀ values were reported.
(§2) For the capture ELISA, AffiniPure Goat Anti-Human IgG, F(ab′)₂ fragment specific (Jackson Immuno Research, Cat #109-005-097) was used instead of AffiniPure Goat Anti-Mouse IgG, F(ab′)₂ fragment specific, 100 μl/well.
Consider B1, for which the EC50 worked out at 0.0897 nM.

In a further experiment the target is T2, human IL6R-Fc protein. Nature of the experiment: ligand blocking ELISA: antibody pre-incubated with biotin-labeled human IL6R-Fc, added to plate-coated human IL6 (blocked ligand: human IL6). The source holds these as a separate data set.
Target sequence in this assay (chain, as listed by the source limits assumed): as above
As for B2, the IC50 was determined as 0.299 nM.

Another experiment concerns the target T2, human IL6R-Fc protein. As to the kind of experiment: benchmark blocking ELISA: antibody pre-incubated with biotin-labeled human IL6R-Fc, added to plate-coated Tocilizumab (competitor: Tocilizumab). This is another data set of the same source.
B1 displayed a half-maximal inhibitory concentration (IC50) of 0.338 nM.

The next experiment has as its target T2, human IL6R-Fc protein. As to the kind of experiment: capture ELISA: antibody captured on anti-IgG F(ab')2 coated plate, then biotin-labeled human IL6R-Fc, streptavidin-HRP. The source holds these as a separate data set. As for the experimental part:
as §1, §2
Target sequence in this assay (chain, as listed by the source limits assumed): as above
As for B2, the concentration giving a half-maximal response (EC50) worked out at 0.101 nM.

A further experiment has as its target T1, recombinant human IL6R-his. Nature of the experiment: SPR Biacore; antibody captured by anti-human IgG on CM5, human IL6R-his at 100 nM. As for the experimental part:
(§3) Un-reacted moieties on the biosensor surface were blocked with ethanolamine. […] Then, serially diluted recombinant human IL6R-his (in house made, amino acid sequence set forth in SEQ ID NO: 44) or macaca IL6R-his protein (in house made, amino acid sequence set forth in SEQ ID NO: 45), starting at 100 nM with a 2-fold serial dilution in HBS-EP⁺ buffer (provided by Biacore), was flowed onto the chip at a flow rate of 30 μL/min. The antigen-antibody association kinetics was followed for 2 minutes and the dissociation kinetics was followed for 10 minutes. The association and dissociation curves were fit to a 1:1 Langmuir binding model using BIAcore evaluation software.
The recombinant human IL6R-his (amino acid sequence set forth in SEQ ID NO: 44) at the concentration of 100 nM instead of serially diluted recombinant human IL6R-his, was flowed onto the chip at a flow rate of 30 μL/min.
Background: In SPR one partner is held on a chip, and binding of the other changes the refractive index at the surface.
For B1, the dissociation constant (Kd) turned out to be 0.915 nM and the koff came to 0.000194 s⁻¹.

With B2, the equilibrium dissociation constant (Kd) was 0.915 nM, the off-rate (koff) came to 0.000194 s⁻¹ and the on-rate (kon) was determined as 212000 M⁻¹ s⁻¹.

A further experiment has as its target T1, recombinant human IL6R-his. As to the kind of experiment: SPR Biacore; antibody from diluted cell supernatant captured by anti-human IgG on CM5, human IL6R in flow. As for the experimental part: as §3
Cell supernatants containing humanized antibodies were harvested after six days in shaking flasks and directly subjected to BIAcore test following the protocol described above with modifications.
On to B3, for which the dissociation constant Kd stood at 0.584 nM, the koff came to 0.000195 s⁻¹ and the on-rate (kon) was 334000 M⁻¹ s⁻¹.

With B4, the Kd stood at 0.744 nM, the off-rate (koff) was determined as 0.000207 s⁻¹ and the kon was determined as 279000 M⁻¹ s⁻¹.

For B5, the equilibrium dissociation constant (Kd) was 0.849 nM, the koff was found to be 0.000202 s⁻¹ and the kon amounted to 238000 M⁻¹ s⁻¹.

For the molecule B6, the Kd came to 0.91 nM, the koff was 0.000199 s⁻¹ and the kon amounted to 218000 M⁻¹ s⁻¹.

In the case of B7, the dissociation constant Kd is 0.669 nM, the koff turned out to be 0.000173 s⁻¹ and the kon was found to be 258000 M⁻¹ s⁻¹.

Turning to B8, the Kd stood at 0.733 nM, the off-rate (koff) is 0.000197 s⁻¹ and the kon is 269000 M⁻¹ s⁻¹.

Consider B9, for which the Kd was 1.05 nM, the koff amounted to 0.000222 s⁻¹ and the kon turned out to be 212000 M⁻¹ s⁻¹.

With B10, the Kd stood at 0.568 nM, the off-rate (koff) is 0.000176 s⁻¹ and the association rate constant (kon) worked out at 311000 M⁻¹ s⁻¹.

On to B11, for which the Kd is 0.63 nM, the dissociation rate constant (koff) came out at 0.000165 s⁻¹ and the kon came to 262000 M⁻¹ s⁻¹.

On to B12, for which the dissociation constant (Kd) was determined as 0.855 nM, the koff was 0.000199 s⁻¹ and the on-rate constant (kon) came to 233000 M⁻¹ s⁻¹.
